Data: the Human Domainome abundance scans (Beltran et al. 2025)
± gives the uncertainty stated by the source.

B1: Formin-binding protein 4, residues 200 to 261; numbered along this chain, Q8N3X1 (parent)
chain: SGWQYDTQCSLAGVGIEMGDWQEVWDENTGCYYYWNTQTNEVTWELPQYLATQVQGLQHYQP

Variants of: B1
Assay: abundance fitness (aPCA) (normalised: wild type 0, dead -1); higher = more abundant; growth selection in yeast, the domain comes from the species named
Details: Homo sapiens

Abundance fitness of substitutions, site by site:
T29: W -0.362 ± 0.075 | Y 0.019 ± 0.15
Y34: F -0.18 ± 0.11 | V -0.669 ± 0.083 | S -0.862 ± 0.11 | E -0.791 ± 0.13 | D -1 ± 0.23 | K -0.726 ± 0.17 | L -0.796 ± 0.088 | C -0.927 ± 0.22 | H -0.873 ± 0.34 | A -0.866 ± 0.11 | P -1.21 ± 0.22 | T -0.847 ± 0.14 | M -0.962 ± 0.14 | G -0.664 ± 0.084 | W -0.449 ± 0.082 | Q -0.946 ± 0.15
P47: Q -1.23 ± 0.33 | M -0.721 ± 0.13 | H -1 ± 0.29 | G -1.04 ± 0.15 | C -1.22 ± 0.32 | D -1.17 ± 0.28 | W -1.12 ± 0.2 | E -0.985 ± 0.22 | T -1.01 ± 0.19 | I -1.02 ± 0.23 | R -0.895 ± 0.11 | Y -1.11 ± 0.27 | S -0.95 ± 0.13 | V -0.583 ± 0.11 | K -0.274 ± 0.17 | F -1.1 ± 0.24 | A -0.842 ± 0.15
V42: Y -0.453 ± 0.14 | M 0.12 ± 0.07 | I -0.188 ± 0.11 | W -0.457 ± 0.14 | F -0.148 ± 0.096 | S 0.02 ± 0.065 | C -0.242 ± 0.13 | L -0.202 ± 0.055 | Q 0.308 ± 0.094 | P -0.415 ± 0.11 | R 0.095 ± 0.067 | K 0.084 ± 0.11 | E 0.063 ± 0.081 | N -0.203 ± 0.16
Y32: N -0.487 ± 0.16 | H -0.16 ± 0.14 | V -0.677 ± 0.077 | A -0.502 ± 0.079 | W -0.543 ± 0.11 | E -0.673 ± 0.091 | F -0.009 ± 0.1 | T -0.773 ± 0.11 | G -0.678 ± 0.081 | C -0.478 ± 0.15 | L -0.633 ± 0.071 | Q -0.818 ± 0.16 | R -0.792 ± 0.1 | P -0.417 ± 0.11 | I -0.3 ± 0.13 | M -0.511 ± 0.097 | S -0.567 ± 0.089 | K -1.02 ± 0.18
G30: K 0.129 ± 0.093 | H -0.718 ± 0.24 | S 0.006 ± 0.088 | N -0.15 ± 0.16 | L -0.4 ± 0.082 | P -0.219 ± 0.13 | R 0.078 ± 0.053 | I 0.052 ± 0.16 | W -0.23 ± 0.08 | Q 0.049 ± 0.086 | F -0.381 ± 0.12 | Y -0.473 ± 0.21 | A -0.095 ± 0.063 | V -0.191 ± 0.057
N40: S -0.057 ± 0.063 | C -0.505 ± 0.13 | M -0.298 ± 0.091 | V -0.556 ± 0.081 | G -0.037 ± 0.062 | W -0.34 ± 0.082 | A -0.08 ± 0.07 | F -0.37 ± 0.12 | Y -0.564 ± 0.17 | R -0.157 ± 0.06 | T -0.096 ± 0.097 | P -0.931 ± 0.15 | E -0.04 ± 0.075 | H -0.032 ± 0.11 | Q -0.056 ± 0.082 | I -0.607 ± 0.19
Q38: W -0.216 ± 0.088 | M -0.11 ± 0.092 | I -0.086 ± 0.14 | D 0.247 ± 0.16 | S -0.019 ± 0.069 | H -0.022 ± 0.25 | T 0.254 ± 0.082 | F -0.346 ± 0.17 | R 0.042 ± 0.064 | N -0.266 ± 0.25 | V -0.126 ± 0.074 | Y 0.128 ± 0.26 | P -0.541 ± 0.14 | L -0.133 ± 0.063 | K 0.138 ± 0.11 | G -0.077 ± 0.064 | E -0.081 ± 0.08
Q48: R -0.061 ± 0.063 | M 0.085 ± 0.091 | P 0.319 ± 0.079 | C -0.147 ± 0.092 | D 0.02 ± 0.16 | T 0.053 ± 0.09 | W -0.417 ± 0.093 | N -0.059 ± 0.17 | S -0.038 ± 0.068 | V -0.127 ± 0.072 | K 0.129 ± 0.1 | I -0.262 ± 0.15 | Y 0.23 ± 0.13 | H -0.133 ± 0.15 | G -0.007 ± 0.059 | L 0.043 ± 0.062 | E -0.024 ± 0.11 | F -0.293 ± 0.16 | A -0.039 ± 0.082
C31: T -0.094 ± 0.071 | Q -0.038 ± 0.1 | W -0.662 ± 0.12 | M -0.127 ± 0.086 | Y -0.063 ± 0.11 | F 0.083 ± 0.077 | R 0.165 ± 0.056 | S 0.031 ± 0.059 | K 0.066 ± 0.088 | L -0.183 ± 0.058 | I -0.326 ± 0.092 | E -0.422 ± 0.093 | P -0.742 ± 0.14 | A 0.01 ± 0.063 | H -0.017 ± 0.12 | V -0.129 ± 0.059 | G -0.125 ± 0.057 | N 0.107 ± 0.12
Y49: E 0.09 ± 0.08 | D -0.006 ± 0.11 | F 0.004 ± 0.097 | H 0.118 ± 0.12 | L -0.126 ± 0.062 | C -0.069 ± 0.11 | A 0.022 ± 0.086 | I 0.081 ± 0.15 | K -0.181 ± 0.12
E45: I -0.089 ± 0.13 | P -0.552 ± 0.15 | K -0.069 ± 0.15 | Y -0.484 ± 0.16 | L -0.21 ± 0.069 | F -0.398 ± 0.14 | V -0.294 ± 0.084 | T -0.076 ± 0.12 | Q 0.05 ± 0.16 | M -0.325 ± 0.14 | R -0.165 ± 0.074 | A -0.213 ± 0.095 | D -0.149 ± 0.12 | G -0.321 ± 0.082 | W -0.598 ± 0.13 | N -0.282 ± 0.14 | H -0.338 ± 0.16
W44: T -0.077 ± 0.079 | Y 0.089 ± 0.14 | S -0.037 ± 0.064 | A -0.221 ± 0.083 | E 0.078 ± 0.086 | F -0.121 ± 0.087 | C -0.078 ± 0.096 | H -0.236 ± 0.14 | Q -0.061 ± 0.076 | P -0.218 ± 0.084 | R 0.03 ± 0.054 | V -0.127 ± 0.069 | G -0.135 ± 0.065 | K 0.043 ± 0.088 | I -0.503 ± 0.17 | D -0.429 ± 0.15 | N 0.068 ± 0.12 | L -0.226 ± 0.062
L46: F -0.46 ± 0.17 | K -0.631 ± 0.12 | C -0.309 ± 0.15 | A -0.461 ± 0.092 | W -0.493 ± 0.1 | D -1.08 ± 0.34 | M -0.224 ± 0.088 | Q -0.264 ± 0.14 | S -0.779 ± 0.12 | E -0.525 ± 0.12 | N -0.625 ± 0.4 | G -0.787 ± 0.11 | P -0.454 ± 0.12 | I -0.245 ± 0.15 | Y -0.059 ± 0.16 | R -0.467 ± 0.085 | T -0.229 ± 0.091 | V -0.303 ± 0.074 | H -0.626 ± 0.35
T39: E -0.37 ± 0.13 | S 0.017 ± 0.058 | F -0.577 ± 0.13 | Y -0.579 ± 0.15 | N -0.093 ± 0.11 | W -0.568 ± 0.094 | D -0.151 ± 0.18 | V -0.877 ± 0.14 | P -0.873 ± 0.12 | A -0.411 ± 0.098 | L -0.461 ± 0.066 | C -0.307 ± 0.094 | Q -0.226 ± 0.12 | K -0.123 ± 0.089 | G -0.362 ± 0.097 | R -0.306 ± 0.06 | M -0.386 ± 0.1 | H -0.34 ± 0.16 | I -0.354 ± 0.1
W35: P -1.04 ± 0.19 | M -0.189 ± 0.085 | F 0.112 ± 0.2 | L -0.112 ± 0.058 | T 0.172 ± 0.09 | R 0.184 ± 0.059 | V -0.104 ± 0.057 | E 0.328 ± 0.076 | G -0.297 ± 0.058 | S 0.066 ± 0.075 | A 0.196 ± 0.054 | K 0.355 ± 0.09 | D -0.159 ± 0.19 | I 0.09 ± 0.22 | H 0.166 ± 0.25 | Y -0.271 ± 0.36
T43: F -0.34 ± 0.12 | R -0.262 ± 0.068 | S -0.021 ± 0.063 | N -0.263 ± 0.17 | Q -0.018 ± 0.1 | C -0.02 ± 0.096 | G -0.401 ± 0.072 | A -0.1 ± 0.076 | W -0.584 ± 0.11 | L -0.092 ± 0.061 | K -0.172 ± 0.092 | Y -0.332 ± 0.14 | M -0.317 ± 0.088 | E -0.053 ± 0.076
N36: V -1.02 ± 0.16 | C -0.236 ± 0.11 | G -0.64 ± 0.098 | L -0.861 ± 0.094 | W -0.814 ± 0.11 | P -0.897 ± 0.15 | F -0.744 ± 0.16 | S -0.553 ± 0.084 | E -0.287 ± 0.11 | I -1.13 ± 0.31 | A -0.645 ± 0.12 | K -0.663 ± 0.13 | D -0.612 ± 0.17 | R -0.657 ± 0.081 | M -0.603 ± 0.12 | T -0.993 ± 0.14 | Y -0.961 ± 0.29 | Q -0.121 ± 0.1
T37: E -0.297 ± 0.11 | L -0.133 ± 0.062 | V -0.058 ± 0.065 | G -0.135 ± 0.07 | R -0.111 ± 0.071 | F -0.151 ± 0.082 | I -0.022 ± 0.085 | Q 0.01 ± 0.093 | D -0.171 ± 0.11 | H -0.009 ± 0.12 | N -0.166 ± 0.1 | S 0.019 ± 0.064 | A 0.061 ± 0.067 | K 0.09 ± 0.094 | C 0.089 ± 0.11 | Y -0.243 ± 0.14
E41: H -0.472 ± 0.2 | V -0.323 ± 0.09 | S -0.349 ± 0.082 | I -0.324 ± 0.17 | G -0.471 ± 0.1 | K -0.081 ± 0.092 | Y -0.231 ± 0.13 | P -0.776 ± 0.12 | A -0.109 ± 0.086 | F -0.556 ± 0.14 | R -0.158 ± 0.078 | T -0.283 ± 0.084 | M -0.34 ± 0.098 | L -0.111 ± 0.059 | N -0.364 ± 0.18 | Q 0.014 ± 0.076 | W -0.378 ± 0.11 | C -0.409 ± 0.15 | D -0.268 ± 0.19
Y33: R -0.201 ± 0.059 | T -0.335 ± 0.099 | W -0.52 ± 0.091 | V -0.447 ± 0.061 | P -0.676 ± 0.12 | K 0.016 ± 0.08 | F -0.281 ± 0.15 | H -0.169 ± 0.17 | D -0.706 ± 0.15 | Q -0.389 ± 0.1 | M -0.316 ± 0.079 | I -0.566 ± 0.25 | S -0.212 ± 0.075 | L -0.477 ± 0.073 | E -0.458 ± 0.1 | G -0.576 ± 0.063 | A -0.691 ± 0.09 | C -0.213 ± 0.13
